The values that follow come from article PMC6344880.

This assay concerns the target 40S subunits of uS9/S16-R143G, uS9/S16-R143E and uS9/S16-R144 strains (S. cerevisiae). As to the kind of experiment: co-sedimentation + cross-linking; formaldehyde cross-linking, whole cell extracts resolved on 10–30% sucrose gradients, Western blot of the 43/48S PIC (40S) fractions for eIF1, eIF2α and uS7, signals normalised to uS7; also in strains carrying the TIF5-G31R allele (Figure 6A), which reversed the accumulation of eIF2. For orientation: A western blot detects proteins with antibodies after separation by electrophoresis.

Regarding “eukaryotic initiation factor 1 (eIF1) (from UniProt P32911 1-108) (natural protein)”, the fold increase of association against the wild-type strain lay in the range of 2.5 to 3 fold.
